Laboratory results taken from IntAct's records for PubMed 9502724.

B1: Mothers against decapentaplegic homolog (Drosophila melanogaster (Fruit fly)), O62609 (parent)
chain: MGGGSGACPPAHMYGAVAPQDIIVRDMVQMPPPPSNAPTSADACLSIVHSLMCHRQGGESEGFAKRAIESLVKKLKEKRDELDSLITAITTNGAHPSKCVTIQRTLDGRLQVAGRKGFPHVIYARIWRWPDLHKNELKHVKYCAFAFDLKCDSVCVNPYHYERVVSPGIDLSGLSLQSGPSRLVKDEYSAGPLVGSMDIDGNDIGTIQHHPTQMVGPGGYGYPQGPSEYVGDANPMSAMFPTGRTIPKIEPQDGVAGSRGSWMVPPPPRLGQPPQQQQQQPQQQTPQPTQQQQAQSQAAAHSLPVPHGMPGMPGPMNPGPVMAPPPPPQQAQNPQGNGVHHTQANSPTDPASALAMQQQQQQQQQQQQQQQQQQQQSGGVPNGSVNAGGGAAAGGQYYGQPPPVSQMQGAGGGGTSVAPSVHAQQNGYVSQPGSAGSAPVGGGGVFGTAQPTPQQPQQPPTGVQANTGSAGAQAGAGGGAAGTWTGPNTLTYTQSMQPPDPRSLPGGFWNSSLSGDLGSPQQTPPQQQQQQQQPRLLSRQPPPEYWCSIAYFELDTQVGETFKVPSAKPNVIIDGYVDPSGGNRFCLGALSNVHRTEQSERARLHIGKGVQLDLRGEGDVWLRCLSDNSVFVQSYYLDREAGRTPGDAVHKIYPAACIKVFDLRQCHQQMHSLATNAQAAAAAQAAAVAGVANQQMGGGGRSMTAAAGIGVDDLRRLCILRLSFVKGWGPDYPRQSIKETPCWIEVHLHRALQLLDEVLHAMPIDGPRAAA
B2: Protein mothers against dpp (Drosophila melanogaster (Fruit fly)), P42003 (parent)
chain: MDTDDVESNTSSAMSTLGSLFSFTSPAVKKLLGWKQGDEEEKWAEKAVDSLVKKLKKRKGAIEELERALSCPGQPSKCVTIPRSLDGRLQVSHRKGLPHVIYCRVWRWPDLQSHHELKPLELCQYPFSAKQKEVCINPYHYKRVESPVLPPVLVPRHSEFAPGHSMLQFNHVAEPSMPHNVSYSNSGFNSHSLSTSNTSVGSPSSVNSNPNSPYDSLAGTPPPAYSPSEDGNSNNPNDGGQLLDAQMGDVAQVSYSEPAFWASIAYYELNCRVGEVFHCNNNSVIVDGFTNPSNNSDRCCLGQLSNVNRNSTIENTRRHIGKGVHLYYVTGEVYAECLSDSAIFVQSRNCNYHHGFHPSTVCKIPPGCSLKIFNNQEFAQLLSQSVNNGFEAVYELTKMCTIRMSFVKGWGAEYHRQDVTSTPCWIEIHLHGPLQWLDKVLTQMGSPHNAISSVS

Variants of: B1
Conditions: with mad_drome Mad, P42003

Row | effect of a mutation on the interaction | Variant
1 | disrupting interaction strength | G727D
2 | with no effect | C99S

Variants of: B2
Conditions: with Med, O62609

Row | effect of a mutation on the interaction | Variant
3 | disrupting interaction strength | S452A;S453A;S455A
